Earlier results in patent US20240401145A1, “METHOD FOR PREDICTING THE RESPONSE OF A PATIENT DIAGNOSED WITH CANCER TO TREATMENT AND/OR IMAGING WITH A COMPOUND TARGETING CCK2-R, AND COMPOUND FOR USE IN METHODS OF SELECTIVELY TREATING AND/OR IMAGING CANCER” (Paul Scherrer Institut, priority 2021, published 2024).
Ends that are not written are not given here.

Experiments:
[1] = gastrin analogues labeled with a radionuclide such as 111In; reported from WO 2015/067473 A1
[2] = tested on: transplanted CCKBR-expressing A431 cells; settings: biodistribution in animal models; reported from WO 2015/067473 A1
[3] = target: T1, CCK2-R (Homo sapiens, UniProt P32239); settings: known from prior art
T1 sequence (P32239 1-447): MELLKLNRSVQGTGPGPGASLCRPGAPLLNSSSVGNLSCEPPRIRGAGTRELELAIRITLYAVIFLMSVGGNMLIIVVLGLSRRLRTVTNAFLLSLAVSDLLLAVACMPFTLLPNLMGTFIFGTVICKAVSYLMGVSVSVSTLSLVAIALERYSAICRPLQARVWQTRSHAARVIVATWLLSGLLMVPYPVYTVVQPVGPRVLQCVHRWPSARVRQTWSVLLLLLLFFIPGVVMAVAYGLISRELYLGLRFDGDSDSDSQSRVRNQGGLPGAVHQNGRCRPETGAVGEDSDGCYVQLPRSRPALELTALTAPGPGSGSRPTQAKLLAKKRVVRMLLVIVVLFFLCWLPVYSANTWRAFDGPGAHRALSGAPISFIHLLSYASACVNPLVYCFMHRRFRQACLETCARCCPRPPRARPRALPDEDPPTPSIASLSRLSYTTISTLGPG

Row | affinity of binding to CCK2-R [3] | Substance | chemical stability (resistance to proteolysis and oxidation) [1] | accumulation in the kidneys [2] | uptake in transplanted CCKBR-expressing A431 cells [2]
1 | – | DOTA-(DGln)6-Ala-Tyr-Gly-Trp-Nle-Asp-Phe-NH2 [PP-F10N, reference compound] | good | low accumulation | good uptake
2 | – | DOTA-(DGlu)6-Ala-Tyr-Gly-Trp-Nle-Asp-Phe-NH2 [PP-F11N] | good | low accumulation | good uptake
3 | high affinity | minigastrin: small peptide hormone known to bind CCK2-R with high affinity (WLEEEEEAYGWMDF; ends and bridges not checked; UniProt P01350 79-92, looked up) | – | – | –
